In PMC7195389, “Inter-domain dynamics in the chaperone SurA and multi-site binding to its outer membrane protein clients” (Nature Communications, 2020):
Positions count from the first letter of the chain named. Names may count otherwise. Blank lines part the entries; values can stand above or below the binder they belong to.

Columns and labels:
Details in all cases: both partners purified
[1] = target: T1, SurA (E. coli periplasmic chaperone, wild type, mature sequence) (E. coli, UniProt P0ABZ6 21-428); experiment: HDX-MS; differential HDX of 8 µM SurA without and with 110 µM WEYIPNV, 10 mM potassium phosphate pH 8.0, 4 °C, 0.5-120 min
T1 construct: numbering is the gene numbering with the signal peptide; also called SurA WT; apo-SurA; source: E. coli BL21(DE3), purified (HisTrap, denatured on-column with 6 M Gdn-HCl, TEV cleavage, second HisTrap); not shown: His6, N-terminal, cleaved
T1 sequence (looked up): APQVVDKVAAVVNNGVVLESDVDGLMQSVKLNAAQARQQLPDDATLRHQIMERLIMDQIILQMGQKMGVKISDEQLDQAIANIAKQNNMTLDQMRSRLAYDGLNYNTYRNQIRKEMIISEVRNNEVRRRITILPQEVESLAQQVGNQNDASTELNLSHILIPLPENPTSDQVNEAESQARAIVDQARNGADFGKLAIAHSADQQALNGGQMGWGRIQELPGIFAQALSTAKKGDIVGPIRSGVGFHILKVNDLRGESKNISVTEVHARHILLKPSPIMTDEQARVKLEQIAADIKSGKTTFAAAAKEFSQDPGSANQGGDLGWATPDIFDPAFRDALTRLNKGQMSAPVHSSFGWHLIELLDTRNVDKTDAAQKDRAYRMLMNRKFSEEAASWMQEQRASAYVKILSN

[2] = target: T2, SurA Q85C-E301C labelled with Alexa Fluor 488 and Alexa Fluor 594 (E. coli, UniProt P0ABZ6 21-428, Q85C | E301C, Alexa Fluor 488 C5 maleimide and Alexa Fluor 594 C5 maleimide, stochastically, on Cys 85 and Cys 301); experiment: FRET or BRET; intramolecular smFRET (ALEX) of ~50 pM doubly labelled SurA variant with 1.5 µM WEYIPNV, 50 mM Tris-HCl pH 8.0, 25 °C; change of the inter-domain E_FRET distribution against apo-SurA
T2 construct: gene numbering with the signal peptide; also called core-P2 SurA variant; SurA core-P2; source: E. coli BL21(DE3), purified as wild type with 10 mM DTT; labelled with Alexa Fluor maleimides, SEC; not shown: His6, N-terminal, cleaved
T2 sequence (looked up): T1 sequence (looked up) with Q65C, E281C

[3] = target: T3, SurA Q85C-N193C labelled with Alexa Fluor 488 and Alexa Fluor 594 (E. coli, UniProt P0ABZ6 21-428, Q85C | N193C, Alexa Fluor 488 C5 maleimide and Alexa Fluor 594 C5 maleimide, stochastically, on Cys 85 and Cys 193); experiment: as above
T3 construct: gene numbering with the signal peptide; also called core-P1 SurA variant; SurA core-P1; source: E. coli BL21(DE3), purified as wild type with 10 mM DTT; labelled with Alexa Fluor maleimides, SEC; not shown: His6, N-terminal, cleaved
T3 sequence (looked up): T1 sequence (looked up) with Q65C, N173C

[4] = target: T1, SurA (E. coli periplasmic chaperone, …); experiment: MST; 50 nM Alexa Fluor 488-labelled Cys-OmpX, SurA titrated 100 µM-3 nM, 0.24 M urea, 50 mM Tris-HCl pH 8.0; fitted to the Hill equation; apparent
[5] = target: T1, SurA (E. coli periplasmic chaperone, …); experiment: cross-linking; tag-transfer photo-cross-linking: 10 µM SurA, 5 µM MTS-diazirine-labelled OmpX Cys variant, 0.24 M urea, 10 mM potassium phosphate pH 8.0, UV LED 30 s; SDS-PAGE, LC-MS/MS
[6] = target: T1, SurA (E. coli periplasmic chaperone, …); experiment: cross-linking; DSBU, 5 µM SurA, 5 µM OmpX, 0.24 M urea, 10 mM potassium phosphate pH 8.0, 45 min, room temperature; SDS-PAGE band, in-gel digestion, LC-MS/MS
[7] = target: T3, SurA Q85C-N193C labelled with Alexa …; experiment: FRET or BRET; intramolecular smFRET (ALEX) of ~50 pM doubly labelled SurA variant with 1.5 µM OmpX or OmpF, 50 mM Tris-HCl pH 8.0, 0.24 M urea, 25 °C; change of the inter-domain E_FRET distribution against apo-SurA
[8] = target: T1, SurA (E. coli periplasmic chaperone, …); experiment: HDX-MS; differential HDX of 8 µM SurA without and with 8 µM OmpX or OmpF, 10 mM potassium phosphate pH 8.0, 0.24 M urea, 4 °C, 0.5-120 min

Binder: WEYIPNV [WEYIPNV peptide]
- binding result [1]: binds
- binding result [2]: binds
- binding result [3]: binds

B1: Cys-OmpX labelled with Alexa Fluor 488 (natural protein, E. coli)
chain: MGSCATSTVTGGYAQSDAQGQMNKMGGFNLKYRYEEDNSPLGVIGSFTYTEKSRTASSGDYNKNQYYGITAGPAYRINDWASIYGVVGVGYGKFQTTEYPTYKHDTSDYGFSYGAGLQFNPMENVALDFSYEQSRIRSVDVGTWIAGVGYRF
modifications: Alexa Fluor 488 C5 maleimide on the added Cys
notes: N-terminal Met followed by the added residues Gly-Ser-Cys (named in words); also called labelled Cys-OmpX; source: E. coli BL21[DE3], inclusion bodies, purified; labelled with Alexa Fluor 488 C5 maleimide
- Kd [4]: ~800 nM

B2: OmpX M41C labelled with MTS-diazirine (natural protein, E. coli)
chain: MATSTVTGGYAQSDAQGQCNKMGGFNLKYRYEEDNSPLGVIGSFTYTEKSRTASSGDYNKNQYYGITAGPAYRINDWASIYGVVGVGYGKFQTTEYPTYKHDTSDYGFSYGAGLQFNPMENVALDFSYEQSRIRSVDVGTWIAGVGYRF
modifications: MTS-diazirine on Cys 41
notes: N-terminal Met residue of the OmpX construct (named in words); source: purified, conjugated with MTS-diazirine in 6 M guanidine-HCl
- binding result [5]: binds

B3: OmpX V167C labelled with MTS-diazirine (natural protein, E. coli)
chain: B2 chain with C19M, V145C
modifications: MTS-diazirine on Cys 167
notes: as for B2
- binding result [5]: binds

B4: OmpX I102C labelled with MTS-diazirine (natural protein, E. coli)
chain: B2 chain with C19M, I80C
modifications: MTS-diazirine on Cys 102
notes: as for B2
- binding result [5]: binds

Further lines, results first:

- binding result [6]: binds
- binding result [7]: binds
B5: OmpX (E. coli outer membrane protein X, mature sequence, unfolded) (natural protein)
chain: B2 chain with C19M
notes: N-terminal Met residue of the construct (named in words); Unfolded client in 0.24 M urea; source: E. coli BL21[DE3], inclusion bodies, purified (gel filtration in 6 M Gdn-HCl); urea-denatured and diluted into the assay

- binding result [8]: binds
- binding result [7]: binds
B6: OmpF (E. coli outer membrane protein F, mature sequence, unfolded) (natural protein, UniProt P02931 23-362, looked up)
chain: AEIYNKDGNKVDLYGKAVGLHYFSKGNGENSYGGNGDMTYARLGFKGETQINSDLTGYGQWEYNFQGNNSEGADAQTGNKTRLAFAGLKYADVGSFDYGRNYGVVYDALGYTDMLPEFGGDTAYSDDFFVGRVGGVATYRNSNFFGLVDGLNFAVQYLGKNERDTARRSNGDGVGGSISYEYEGFGIVGAYGAADRTNLQEAQPLGNGKKAEQWATGLKYDANNIYLAANYGETRNATPITNKFTNTSGFANKTQDVLLVAQYQFDFGLRPSIAYTKSKAKDVEGIGDVDLVNYFEVGATYYFNKNMSTYVDYIINQIDSDNKLGVGSDDTVAVGIVYQF
notes: source: E. coli BL21[DE3], inclusion bodies, purified (gel filtration in 6 M Gdn-HCl); urea-denatured and diluted into the assay

- binding result [5]: binds
B7: OmpX K122C labelled with MTS-diazirine (natural protein, E. coli)
chain: B2 chain with C19M, K100C
modifications: MTS-diazirine on Cys 122
notes: as for B2
